{"source": "IntAct's records for PubMed 9571151", "parents": {"B1": {"name": "Tyrosine-protein kinase BTK (Homo sapiens), Q06187 (parent)", "chain": "MAAVILESIFLKRSQQKKKTSPLNFKKRLFLLTVHKLSYYEYDFERGRRGSKKGSIDVEKITCVETVVPEKNPPPERQIPRRGEESSEMEQISIIERFPYPFQVVYDEGPLYVFSPTEELRKRWIHQLKNVIRYNSDLVQKYHPCFWIDGQYLCCSQTAKNAMGCQILENRNGSLKPGSSHRKTKKPLPPTPEEDQILKKPLPPEPAAAPVSTSELKKVVALYDYMPMNANDLQLRKGDEYFILEESNLPWWRARDKNGQEGYIPSNYVTEAEDSIEMYEWYSKHMTRSQAEQLLKQEGKEGGFIVRDSSKAGKYTVSVFAKSTGDPQGVIRHYVVCSTPQSQYYLAEKHLFSTIPELINYHQHNSAGLISRLKYPVSQQNKNAPSTAGLGYGSWEIDPKDLTFLKELGTGQFGVVKYGKWRGQYDVAIKMIKEGSMSEDEFIEEAKVMMNLSHEKLVQLYGVCTKQRPIFIITEYMANGCLLNYLREMRHRFQTQQLLEMCKDVCEAMEYLESKQFLHRDLAARNCLVNDQGVVKVSDFGLSRYVLDDEYTSSVGSKFPVRWSPPEVLMYSKFSSKSDIWAFGVLMWEIYSLGKMPYERFTNSETAEHIAQGLRLYRPHLASEKVYTIMYSCWHEKADERPTFKILLSNILDVMDEES", "partner": "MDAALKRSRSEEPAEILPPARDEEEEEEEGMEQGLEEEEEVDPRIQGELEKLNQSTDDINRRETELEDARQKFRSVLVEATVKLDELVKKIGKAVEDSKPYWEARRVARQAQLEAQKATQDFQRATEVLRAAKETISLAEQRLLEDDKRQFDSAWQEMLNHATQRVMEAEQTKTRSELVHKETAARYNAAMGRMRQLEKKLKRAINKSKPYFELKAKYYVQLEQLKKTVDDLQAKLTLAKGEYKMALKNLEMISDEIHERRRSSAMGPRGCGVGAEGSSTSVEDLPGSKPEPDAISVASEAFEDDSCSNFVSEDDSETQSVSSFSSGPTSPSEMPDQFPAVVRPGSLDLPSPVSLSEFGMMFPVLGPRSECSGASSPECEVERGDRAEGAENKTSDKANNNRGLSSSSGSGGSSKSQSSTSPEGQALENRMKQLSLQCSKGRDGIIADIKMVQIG"}}, "data": [{"variants_of": "B1", "settings": "with 3bp5_human SH3BP5, O60239", "values": [{"variant": "W251L;W252L", "effect of a mutation on the interaction": "decreasing interaction"}]}]}
